Each block holds one binder with its values, some of them ahead of it.
Assays:
[1] = Western blot of FOXC1 level; settings: glycan lost; control: mock, sh-Scb or untreated
[2] = target: T1, recombinant GST-tagged OGT (wild-type) (human, UniProt O15294 1-1046); assay: co-IP; recombinant GST-tagged OGT and MBP-tagged FOXC1 proteins (wild-type or truncations), co-IP and Western blot; settings: both partners purified
T1 construct: O-GlcNAc transferase (OGT), human cDNA (printed as 3,131 bp) from Genechem; wild-type construct as against truncations
T1 sequence (looked up): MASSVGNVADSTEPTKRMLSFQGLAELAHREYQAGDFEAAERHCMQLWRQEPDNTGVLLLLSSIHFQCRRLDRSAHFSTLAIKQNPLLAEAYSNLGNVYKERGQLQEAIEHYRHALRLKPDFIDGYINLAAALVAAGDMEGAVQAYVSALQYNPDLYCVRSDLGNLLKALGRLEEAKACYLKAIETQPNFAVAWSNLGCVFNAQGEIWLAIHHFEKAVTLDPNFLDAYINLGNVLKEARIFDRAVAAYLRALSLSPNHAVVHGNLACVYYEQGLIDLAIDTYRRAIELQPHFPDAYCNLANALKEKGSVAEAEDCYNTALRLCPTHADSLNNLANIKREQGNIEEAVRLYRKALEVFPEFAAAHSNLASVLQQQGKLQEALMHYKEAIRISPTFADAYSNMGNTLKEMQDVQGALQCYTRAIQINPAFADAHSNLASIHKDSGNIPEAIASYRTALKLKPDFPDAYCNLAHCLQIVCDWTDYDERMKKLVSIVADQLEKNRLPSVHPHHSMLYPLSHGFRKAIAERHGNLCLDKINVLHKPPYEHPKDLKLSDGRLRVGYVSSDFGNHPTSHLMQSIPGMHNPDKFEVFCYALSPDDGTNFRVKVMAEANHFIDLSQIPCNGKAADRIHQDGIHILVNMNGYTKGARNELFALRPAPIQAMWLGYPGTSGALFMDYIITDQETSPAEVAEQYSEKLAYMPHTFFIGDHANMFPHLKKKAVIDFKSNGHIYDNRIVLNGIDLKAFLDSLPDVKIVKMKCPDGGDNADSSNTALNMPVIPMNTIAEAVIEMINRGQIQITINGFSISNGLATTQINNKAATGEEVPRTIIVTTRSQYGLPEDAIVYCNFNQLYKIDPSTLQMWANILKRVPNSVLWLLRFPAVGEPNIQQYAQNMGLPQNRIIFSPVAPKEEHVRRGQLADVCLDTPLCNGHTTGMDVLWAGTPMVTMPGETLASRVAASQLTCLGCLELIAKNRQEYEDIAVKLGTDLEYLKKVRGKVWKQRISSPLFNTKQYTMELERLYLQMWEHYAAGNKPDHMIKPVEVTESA

[3] = CHX chase Western blot (protein stability), SH-SY5Y; settings: glycan lost; control: sh-Scb
[4] = dual-luciferase FOXC1 reporter, SH-SY5Y; settings: glycan lost; control: wild-type Flag-FOXC1
[5] = CHX chase Western blot (protein stability); settings: glycan lost; control: untreated

B1: forkhead box C1 (FOXC1): sh-OGT (protein)
parent chain: MQARYSVSSPNSLGVVPYLGGEQSYYRAAAAAAGGGYTAMPAPMSVYSHPAHAEQYPGGMARAYGPYTPQPQPKDMVKPPYSYIALITMAIQNAPDKKITLNGIYQFIMDRFPFYRDNKQGWQNSIRHNLSLNECFVKVPRDDKKPGKGSYWTLDPDSYNMFENGSFLRRRRRFKKKDAVKDKEEKDRLHLKEPPPPGRQPPPAPPEQADGNAPGPQPPPVRIQDIKTENGTCPSPPQPLSPAAALGSGSAAAVPKIESPDSSSSSLSSGSSPPGSLPSARPLSLDGADSAPPPPAPSAPPPHHSQGFSVDNIMTSLRGSPQSAAAELSSGLLASAAASSRAGIAPPLALGAYSPGQSSLYSSPCSQTSSAGSSGGGGGGAGAAGGAGGAGTYHCNLQAMSLYAAGERGGHLQGAPGGAGGSAVDDPLPDYSLPPVTSSSSSSLSHGGGGGGGGGGQEAGHHPAAHQGRLTSWYLNQAGGDLGHLASAAAAAAAAGYPGQQQNFHSVREMFESQRIGLNNSPVNGNSSCQMAFPSSQSLYRTSGAFVYDCSKF
expression_or_secretion [1]: decreases

binding result [2]: binds
B2: recombinant MBP-tagged FOXC1 (wild-type) (natural protein, human, UniProt Q12948 1-553, looked up)
chain: B1 parent chain
notes: forkhead box C1 (FOXC1), human cDNA (1,662 bp) from Genechem; wild-type construct as against truncations; the printed AD1 domain is residues 1 to 68; a cDNA of 1,662 bp fits 553 codons and a stop codon

B3: forkhead box C1 (FOXC1): sh-OGT #1 (protein)
parent chain: B1 parent chain
degradation_or_half_life [3]: decreases

B4: forkhead box C1 (FOXC1): S8A (protein)
parent chain: B1 parent chain
other: transcriptional activity [4]: decreases

B5: forkhead box C1 (FOXC1): OSMI-1 (protein)
parent chain: B1 parent chain
expression_or_secretion [1]: decreases | degradation_or_half_life [5]: decreases
